Patent publication US20250163149A1, “ANTI-RAGE ANTIBODY” (Swansea University, priority 2022, published 2025)
“Also recorded” adds a separate entry of the source.

What was measured:
[1] = biological target: RAGE (Homo sapiens, UniProt Q15109); assay: Binding target blocking assay by immunofluorescence on HEC-1A cells; assay type: cell-based; design: endogenous in cells; host or cells: HEC-1A (ECACC); details: then antibody at 4 μg/ml
Protocol: To proof that HA9 shares similar binding epitope as other α-RAGE antibodies, an immunofluorescence approach was used. For this purpose, 1.5×10^4 HEC1A cells/well (obtained from the European Collection of Authenticated Cell Cultures, ECACC, Public Health England, UK) were seeded in 8-well chamber slides (Ibidi) in 300 μl of stripped medium and cultured for 24 h in a humidified, 5% CO2 in air atmosphere incubator at 37° C. After culture, cells were fixed with 4% paraformaldehyde (Sigma) for 20 minutes, permeabilized with 0.1% Triton X-100 (Sigma) for 10 minutes at 4° C. and blocked with 3% BSA in PBS for 1 h. Cells were then pre-incubated with a primary antibody against RAGE at a concentration in excess (20 μg/ml in 3% BSA in PBS for 1 h) to block the specific epitope they bind, before cells were incubated with the α-RAGE antibody of interest at 4 μg/ml in 3% BSA-PBS overnight at 4° C. This was followed by 1 h incubation with Alexa-fluorophore-conjugated secondary antibodies. Cells were washed with PBS extensively between all steps, counterstained before imaging with Hoechst (Life Technologies™) and imaged using a LSM710 confocal fluorescence microscopy system (Zeiss, UK). The mean intensity of fluorescence was obtained using imageJ by measuring the integrated density per imaged field, normalised by the number of cells in the respective field and obtaining the mean from >10 fields obtained per condition. A decrease in fluorescence in the pre-blocked condition compared with the not-pre-blocked condition means both antibodies share similar epitope of binding on the same protein.

[2] = tested on: SKOV3 cells; assay: Internalisation assay on SKOV3 cells; assay type: cell-based, human; details: for uptake (internalisation), secondary antibody detection: 4 h or 24 h at 37° C.
Protocol: To screen internalization capacity and traffic to lysosomes of α-RAGE antibodies, all the primary antibodies used in the screening were conjugated to pHAb Amine Reactive Dye following manufacturer's instructions (Promega, UK, Cat. No. G983). This type of dye emits fluorescence when traffics to acidic environments (late endosome and lysosome). For this purpose, 1.5×10^4 SKOV3 cells/well were seeded in 8-well chamber slides (Ibidi) in 300 μl of stripped medium and cultured for 24 h in a humidified, 5% CO2 in air atmosphere incubator at 37° C. After culture, cells were washed in pre-warmed (37° C.) Dulbecco's phosphate buffered saline (DPBS) and slides placed on ice. Cells were treated with control medium or medium containing one of the α-RAGE antibodies conjugated to pH-dye at 10 μg/ml, and the 8-well chamber slides were incubated on ice for 30 minutes. Slides were then transferred to the incubator at 37° C. for 4 h or 24 h. After internalization time, cells were washed in DPBS, fixed in 4% paraformaldehyde for 20 min and permeabilized with 0.1% Triton X-100 (Sigma) for 10 minutes at 4° C. Cells were washed with PBS extensively between all steps, counterstained before imaging with Hoechst (Life Technologies™) and imaged using a LSM710 confocal fluorescence microscopy system (Zeiss, UK). Unconjugated α-RAGE antibodies were also used in the internalisation assay. In this case were visualized using Alexa-fluorophore secondary antibodies as described in the immunofluorescence method.

[3] = tested on: RAGE; assay: Western blot on protein extracts from ovarian cancer cell lines (OCCL); design: species or system human; details: whole-cell extracts of SKOV3, OVCAR3, A2780 and cisplatin-resistant lines; antibody 1 μg/mL
Chain of RAGE (Q15109 23-317 limits assumed): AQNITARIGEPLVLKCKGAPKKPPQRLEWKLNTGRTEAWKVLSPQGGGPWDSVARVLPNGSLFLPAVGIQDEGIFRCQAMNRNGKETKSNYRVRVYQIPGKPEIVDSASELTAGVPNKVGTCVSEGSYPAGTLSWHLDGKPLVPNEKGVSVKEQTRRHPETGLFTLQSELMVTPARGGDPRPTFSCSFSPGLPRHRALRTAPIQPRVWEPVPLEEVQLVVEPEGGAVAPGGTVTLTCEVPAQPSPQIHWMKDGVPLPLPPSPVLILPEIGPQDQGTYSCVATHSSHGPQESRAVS
Protocol: Confluent cultures of cells were lysed in ice cold RIPA buffer (Sigma-Aldrich), whole-cell protein extracts were quantified with DC protein assay, 30 μg/lane were resolved by SDS-PAGE on TGX precast gels, transferred to mini PDVF membranes, blocked 1 h at RT in 5% Bovine Serum Albumin (BSA) in TBST (Tris Buffered Saline, 0.1% Tween-20) and incubated o/n at 4° C. in the same solution with 1 μg/mL of mA9 (sc-365154, Santa Cruz Biotechnology) antibody, mHA9 antibody or hHA9 antibody, or GAPDH (Santa Cruz Biotechnology) as loading control. Membranes were then washed with TBST and incubated 1 h at RT with 0.1 μg/mL of IgG horseradish peroxidase secondary antibody (GE Healthcare) or […] of Goat F(ab′) 2 Anti-Mouse IgG-F(ab′) 2 horseradish peroxidase secondary antibody (Abcam). Target proteins were visualised after incubation with Clarity Western ECL Substrate and imaged using a ChemiDoc System Bio-Rad Imager. Bands were quantified with ImageLab software. Unless stated all the materials specified above were obtained from Bio-Rad Laboratories.

Chain of RAGE (Homo sapiens, UniProt Q15109) (Q15109 23-404): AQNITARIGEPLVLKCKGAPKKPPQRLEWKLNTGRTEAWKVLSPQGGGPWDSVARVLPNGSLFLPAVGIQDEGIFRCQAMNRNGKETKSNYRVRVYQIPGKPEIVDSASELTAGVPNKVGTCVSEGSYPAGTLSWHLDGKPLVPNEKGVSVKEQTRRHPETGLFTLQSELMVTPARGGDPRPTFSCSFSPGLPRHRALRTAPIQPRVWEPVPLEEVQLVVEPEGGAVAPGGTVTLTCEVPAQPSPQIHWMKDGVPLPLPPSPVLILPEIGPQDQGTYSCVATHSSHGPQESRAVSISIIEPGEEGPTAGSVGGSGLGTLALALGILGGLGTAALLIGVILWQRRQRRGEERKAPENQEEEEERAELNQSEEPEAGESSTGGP

B1: hHA9: chimeric humanised format of anti-RAGE antibody clone HA9 (antibody, V domains shown)
VH: EVKLVETGGGLVQPGRPMKLSCVASGFTLSDHWMNWVRQSPEKGLEWVAQIRNRPYKFEKYYSDSVKGRFTISRDDSKNSVYLQMNNLRAEDMGIYYCSSYRYGLAYWGQGTLVTVST
VL: DNLLTQSPAILSVSPGERVSFSCRASQTIDTRIHWYQQRKNGSPRLLIRYISESLSGIPSRFSGSGSGTEFTLTINSVESEDIADYYCQQTESWPITFGSGTKLEIK
[1]; Abcam antibody 20 μg/ml pre-incubation
  staining after Abcam antibody pre-blocking: did not result in a decrease
[1]; N16 20 μg/ml pre-incubation
  staining after N16 pre-blocking: statistically significant decrease
[2]; compared with other clones and AB11451, listed as chimeric HA9
  uptake (internalisation), secondary antibody detection: highest uptake
[2]; compared with other clones and AB11451, listed as chimeric-HA9
  uptake (internalisation), secondary antibody detection: better uptake
[2]; pHAb dye conjugate 10 μg/ml, 4 h or 24 h
  uptake of pH-dye conjugated antibody: highest uptake and traffics efficiently to acidic endosomes
[3]
  RAGE isoform detected by western blot: able to detect expression levels of full-length transmembrane RAGE; also recorded: detection of high levels of full-length RAGE isoform
